Drawing on PMC8632965, this text covers Kd for one substance.

Assay [1] has as its target extracellular portion of CD147 (ECD), amino acids 22–205 (human) (UniProt P35613). The assay can be described thus: SPR; Biacore T200; CD147ECD peptides diluted in 10 mM sodium acetate pH 4.5 and immobilised on a CM5 chip; purified proteins injected as analytes at 10 µL/min; BSA signal subtracted. In general terms: In SPR one partner is held on a chip, and binding of the other changes the refractive index at the surface.

The target of assay [2] is domain 1 of CD147 (human) (UniProt P35613). Described as above.

Turning to “extracellular portion of CD98 (212-630 of CD98hc) (domain or fragment)”, the results for the Kd in assay [1] and in assay [2] were 431 nM and 3530 nM, respectively.
